We go through 41 sequences from the nanobody polyreactivity screen of Harvey et al. (2022).

The nature of this series: yeast display, Sf9 membrane polyspecificity reagent, FACS + sequencing; frameworks hold sequencing errors. The gist of the method:
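Sorting gates, low and high (top ~1%), were placed on anti-HA fluorescence to track expression and on streptavidin fluorescence to track reagent binding. A clone's polyreactivity label is taken from the gate it came out of. The reagent was 10% biotinylated, detergent-solubilized Sf9 membrane, applied for 1 hour at 4 °C to galactose-induced yeast display cells.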
For the sequence “QVQLVESGGGLVQAGGSLRLSCAASGRIFRSNAMGWYRQAPGKERELVAAISSNGGSTYYADSVKGRFTISRDNAKNPVYLQMNSLKPEDTAVYYCAARVYYPVRYGYWGQGTQVTVSS”, the “polyreactivity (PSR sort gate)” value is “high polyreactivity”.

Take “QVHLVESGGGLVQAGGSLRLSCPASGSTIRRYAMGWYRQPHGKERELVAAIRQRGTYTYYADSVKGRFTISRDTAKNTVYLQMNSLKPEDTAVYYCSGVPSLWLFNSWGQGTQVTVSS”: the “polyreactivity (PSR sort gate)” value is recorded as “high polyreactivity”.

In the case of “QVHLVESGGGLVQAGGSLRLSCAASGFTFYYYAMGWYRQAPGKEREFVAAITRGGGSTYYADSVKGRFTISRDKAKNSVYLQMNSLKPEDTAVYYCAADPQSTIRDYWGQGTQVTVSS”, the “polyreactivity (PSR sort gate)” value is reported as “high polyreactivity”.

“QVQLVESGGGLVQAGGSLRLSCAASGSTFFLYAMGWYRQAPGKERELVASITDGGSTNYADSVKGRFTISRDNAKNTVYLQMNSLKPEDTAVYYCAKDYIHFSHKYDYWGQGTQVTVSS”: the “polyreactivity (PSR sort gate)” value is given as “low polyreactivity”.

Take “QVQIVDSGAVIVQAGGSLRLSCDASGRIILINAMGWYRQAPGKERELVAAITSSGGSTYYADSVKGRFTISRDNAKNTVYLQMNSLKPEDTAVYYCAAARYSRYDYWGQGTQVTVSS”: the “polyreactivity (PSR sort gate)” value is listed as “high polyreactivity”.

On to “QVQLVESGGGLVQAGGSLRLSCAASGSIFNPYDMGWYRQAPGKERELVAAIDWSGGSTYYADSVKGRFTISRDNAKNTVYLQMNSLKPEDTAVYYCNAESYQDTLFGADNDYDYWGQGTLVTVSS”, for which the “polyreactivity (PSR sort gate)” value is “low polyreactivity”.

Turning to “QVQLVESGGGLVQAGGSLRLSCAASGGIFYSNAMGWYRQAPGKERELVAVISGNGGRTYYADSVKGRFTISRDNAKNTVYLQMNSLKPEDTAVYYCATPSYTTAYVEGDYWGQGTQVTVSS”, the “polyreactivity (PSR sort gate)” value is reported as “low polyreactivity”.

Consider “QVQLVESGGGLVQAGGSLRLSCAASGFTSSINAMGWYRQEPGKERELVAAIRSGGSTNYADSVKGRFTISRDNAKNTVYLQMNSLKPEDTAVYYCAAVTRVYGKTMGYWGQGTQVTVSS”, for which the “polyreactivity (PSR sort gate)” value is listed as “high polyreactivity”.

In the case of “QVQLVESGGGLVQAGGSLRLSCAASGIIFYYYAMGWYRQAPGKERELVAAISTSGGRTYYADSVKGRFTISRDNAKSTVYLQMNSLKPEDTAVYYCAKDFWYVTGGWSSGLDYWGQGTQVTVSS”, the “polyreactivity (PSR sort gate)” value was “low polyreactivity”.

On to “QVQLVESGGGLVQAGGSLRLSCAASGFIFPTNVMGWYRQAPGKEREFVASITWRGGGTYYADSVKGRFTISRDNAKNTVYLPMNSLKPEDTAVYYCAAGRSWSSYWKYDYWGQGTQVTVSS”, for which the “polyreactivity (PSR sort gate)” value is given as “low polyreactivity”.

“QGQLVESGGGLVQAGGSLRLSCAASGRIFTYYAMGWYRQAPGKERELVAAISWSGGSTYYADSVKGRFTISRDNAKNTVYLQMNSLKPEDTAVYYCAAVGYAGLPYGLRPNNSGYWGQGTQVTVSS”: the “polyreactivity (PSR sort gate)” value is listed as “low polyreactivity”.

As to “QVQLVESVGGLVQAGGSLRLSCAASGGTFKTNAMGWYIQAPGKERELVAAITGSGTSTYYADSVKGRFTISRDNAKNTVYLQMNSLKPEDTAVYYCAADKLYQPGIGDDYWGQGNQVTVSS”, the “polyreactivity (PSR sort gate)” value is “low polyreactivity”.

For the sequence “HVQLVESGGGLVQAGGSLRLSCAASGRTFLVYAMGWDRQAPGKERELVADITRSGGRTYYADSVKGRITISRDNAKNTVYLQINSLKPEDTAVYYCAARPYFVGPIEYDYWGQGTQVTVSS”, the “polyreactivity (PSR sort gate)” value is given as “high polyreactivity”.

With “QVHLVESGGGLVQAGGSLRLSCAASAFTFSQYAMGWYRQAPGKERELVAVISINGGSTYYADSVKGRFTISRDNAKNTVYLQMNSLKPEDTAVYYCAADDTDSEYYGYDYWGQGTQVTVSS”, the “polyreactivity (PSR sort gate)” value was “low polyreactivity”.

As to “QVQLVESGGGLVQAGGSLRLSCAASGFTFYLNVMGWYRQAPGKERELVARISRSGGTTYYADSVKGRFTISRDNAKNTVYLQMNSLKPEDTAVYYCAARRYGVPPTYDYWGQGTQVTVSS”, the “polyreactivity (PSR sort gate)” value is recorded as “high polyreactivity”.

For “QVQLVESGGGLVQAGGSLRLSCAASGSIFLYYAMGWYRQAPGKERELVAGIRRGGRTNYADSVKGRFTIPRDNAKNTVYLQMNSLKPEDTAVYYCAKGGYWGQGTQVTVSS”, the “polyreactivity (PSR sort gate)” value is listed as “high polyreactivity”.

As for “QVQLVESGGGLVQAGGSLRLSCAASGSTFAYNAMGWYRQAPGKERELVAAISKGGGSTYYADSVKGRFTISRDNAKNTVYLQMNSLKPEDTAVYYCNAYYRSPRGYNYWGQGTQVTVSS”, the “polyreactivity (PSR sort gate)” value was “high polyreactivity”.

In the case of “QLQLVESGGVLVQAGGSLRLSCAASGSTFRYNAMGWYRQAPGKERELVASITWSGGDTYYADSVKGRFTISRDNAKNTVYLQMNSLKPEDTAVYYCAKKGYASRYFIYDYWGQGTQVTVSS”, the “polyreactivity (PSR sort gate)” value is “low polyreactivity”.

As for “QVQLVESGGGVVQAGGSLRLSCAASGFIFYQYAMGWYRQAPGKERELVAAITSRGGRTYYADSVKGRFTISRDNAKNTVYLQMNSLKPEDTAVYYCAVRKASDYYYWGQGTQVTVSS”, the “polyreactivity (PSR sort gate)” value is “high polyreactivity”.

In the case of “QVQLVESGGGLVQAGGSLRLSCAASGRTLGQYEMGWYRQAPGTERELVAAITSSDGITYYADSVKGRFTISRDNAKNTVYLQMNSLKPEDTAVYYCASDYPYYWYWTYLYDYCGQGTQVTVSS”, the “polyreactivity (PSR sort gate)” value is “low polyreactivity”.

With “QVQLVESGGGLVQAGGSLRLSCAASGSIFDVNAMGWYIQAPGKERELVAAISQRGTRTYYADSVKGRFTISRDNAKNTVYLQMNRLKPEDTAVYYCNRGGWRQYDSWGQGTQVTVSS”, the “polyreactivity (PSR sort gate)” value was “high polyreactivity”.

With “QVHLVESGGGLVQAGGSLRLSCAASGITFGYYAMGWYRQAPGKERELVAAISNSGRTYYADSVKGRFTISRDNAKNTVYLQMNSLKPEDTAVYYCADVDAYYDFYYWGQGTQVTVSS”, the “polyreactivity (PSR sort gate)” value was “low polyreactivity”.

Regarding “QVQLLESGGGLVQARGSLRLICAASGRIFTDNAMGWYIQAPGKERELVATISKRGGRTYYADSVKGRFTISRDNAKNTVYLQMNSLKPEDTAVYYCNARPYWIDGSGLFPYDYWGQGTQVTVSS”, the “polyreactivity (PSR sort gate)” value is “high polyreactivity”.

For the sequence “QVQLVESGGGLVQAGGSLRLSCAASGSTFKYNAMGWYRQAPGKERELVAAITRGGRTYYADSVKGRFTISRDNAKNTVYLQMNSLKPEDTAVYYCAAKWLGTAGDDYWGQGTQVTVSS”, the “polyreactivity (PSR sort gate)” value is on record as “high polyreactivity”.

In the case of “QVQLVESGGGLVQAGGSLRLSCAASGGTFKRNAMGWYRQAPGKERELVAAISTSGATTYYADSVKGRFTISRDNAKNTVYLQMNSLKPEDTAVYYCNAVGDARYNYWGQGTQVTVSS”, the “polyreactivity (PSR sort gate)” value is listed as “high polyreactivity”.

In the case of “QVQLVESGGGLVQAGGSLRLSCAASGSIFYPYVMGWYRQAPGKERELVAAITTSVGSTYYADSVKGRFTISRDNAKNTVYLQMNSLKPEDTAVYYCAAKYFGSRRPGRYNYWGQGTQVTVSS”, the “polyreactivity (PSR sort gate)” value was “high polyreactivity”.

Take “QDQLGESGGGLVQAGGSLRLSCAASGSTFRYYAMGWYRQAPGKERELLAAITSSGGSTYYADSVKGRFTISRDNAMNTVYLQMNSLNPEDTAVYYCAVAVKNWVKLNYWGQGTQVTVSS”: the “polyreactivity (PSR sort gate)” value is recorded as “high polyreactivity”.

Take “QVQLGESGGGLVQAGGSLRLSCAAAGFIFRPYAMGWYRQAPGKERELVAVISNSGGSSNYADSVKGRFSISRENAKNTVYLQMNSLKPEDTAVDYCNALVYVPHWWTYYDWGQGTQVTVSS”: the “polyreactivity (PSR sort gate)” value was “high polyreactivity”.

In the case of “QVQLVESGGGLVQAGGSLRLSCAASGSTFAIYAMGWYRQAHGKERELVAAIRQRAGSTYYADSVKGRFTISRDNAKNTVYLQMNSLKPEDTAVYYCATATRPISRGYWGQGTQVTVSS”, the “polyreactivity (PSR sort gate)” value was “low polyreactivity”.

“QVQLVESGGGLVQAGGSLRLSCAASGSIYGRYVMGWYRQSPGKERELVATISSGGSTYYADSVKGRFTISRDNAKNTVYLQMNSLKPEDTAVYYCAASYSRFVDWIGDPGYDYWGQGTQVTVSS”: the “polyreactivity (PSR sort gate)” value is recorded as “low polyreactivity”.

Turning to “QVQLVESGGGLVQPGGSLRLSCAASGFIFSYYAMGWYRQAPGKERELVAAITQSGGGTYYADSVKGRFTISRDNAKNTVYLQMNSLKPEDTAVYYCAVLYYQTRQVYSGYSRYWLYSSRYDYWGQGTQVTVSS”, the “polyreactivity (PSR sort gate)” value is reported as “high polyreactivity”.

For “QVQLVESGGGLVQAGGSLRLSCAASGRIFYQNAMGWYRQAPGKERELVAGITRGGSTYYADSVKGRFTISRDNAKNTVYLQMNSLKPEETAVYYCAVAFWRTKWYDYWGQGTQVTVSS”, the “polyreactivity (PSR sort gate)” value was “low polyreactivity”.

Regarding “QVQLVESGGRIVQAGGSLRLICASSGLIFYDNMGWYRQAPGKERELVAAISSSGGSRTYADSVKGRFTISRDNAKNTVYLQMNSLKPEDTAVYYCAVDKHYYGRYGVTYDYDYWGQGTQVTVSS”, the “polyreactivity (PSR sort gate)” value is “low polyreactivity”.

Consider “QVQLEESGGGLVQAGGSLRLSCAASGSIFEWNDMGWSRQAPGKEREFVAAITSTDDGTYYADSVKGRFTISRDNAKNTVYLQMNSLKPEDTAVYYCAKRAWGSPYGYWGQGTQVTVSS”, for which the “polyreactivity (PSR sort gate)” value is “low polyreactivity”.

Turning to “QVQLVESGGGLVQAGGSLRLSCAASGRIFKWYAMGWSRQAPGKEWEFVAGISGSAGRTYYADSVKGRCTISRDNAKNTVYLQMNSLKPEDTAVYYCAAVYYSSLYDYWGQGTQVTVSS”, the “polyreactivity (PSR sort gate)” value was “low polyreactivity”.

In the case of “QVQLVESGVGLVQAGGSLRLSCAASGSTFRSNALGWYRQAPGKEREVVAGISSGGGTYYADSVKGRFTISRDNAKNTVYLQMNSLKPEDTAVYYCAKVVYFGWSVQYYYWGQGTQVTVSS”, the “polyreactivity (PSR sort gate)” value is reported as “low polyreactivity”.

As for “QVQLVESGGGLVQAGGSLRLSCAASGGIVDSNAMGWYRQAPGKERELVAAISDSGGSTYYADSVKGRFTISRDNAKNTVYLQMNSLKPEDTAVYYCAADSDYHFVNYRFGMDYWGQGTQVTVSS”, the “polyreactivity (PSR sort gate)” value is “low polyreactivity”.

Take “QVQLVESGGGLVQAGGSLRLSCAASGSIFGINAMGWYRQAPGKERELVAAISWRGDSTSYADSVKGRFTISRDNAKNTVYLQMNSLKPEDTAVYYCAKGGTRFYVVGETYYYWGQGTQVTVSS”: the “polyreactivity (PSR sort gate)” value is “low polyreactivity”.

In the case of “QVQLVESVRGLVQAGGSLLLSCAASGITITHYDMGWYRHSSGKESELVAAITSSGRTYYADSVKGRFSLSRDNAKNTVYLQMNSLKPEDTAVYYCDAEHSWFYGLLGYWGQGTQVTVSW”, the “polyreactivity (PSR sort gate)” value is given as “high polyreactivity”.

In the case of “QVQLVESGGGLVQAGGSLRLSCAASGRIFAGYAMGWYRQAPGKERELVAAIRSGGSTNYADSVKGRFTISRDNAKNTVYLQMNSLKPEDTAVYYCAAETPVIPWDEMDYWGQGTQVTVSS”, the “polyreactivity (PSR sort gate)” value is listed as “low polyreactivity”.

Take “QVQLVESGGGLVQAGGSLRLSCAASGLTFSIYAMGWYRPAPGKERELVAGISQSGGSTYADSVKGRFTISRDNAKNTVYLQMNSLKPEDTAVYYCAKEFEWVGSPSTVDGLEYWGHGTQVTVSS”: the “polyreactivity (PSR sort gate)” value is “low polyreactivity”.
